In PMC10806771:

Molecular target: trastuzumab (human)
Assay: fluorescence polarisation

Row | IC50 [µM] | Substance
1 | > 3 | Fc-III V10K (peptide)
2 | > 3 | Fc-III W4K (peptide)
3 | > 3 | Fc-III W11K (peptide)
